From patent publication US20170267972A1 (published 2017)

T1: LMP2 (Epstein-Barr virus latent membrane protein 2) peptide on HLA-A*24:02 (human)
T1 peptide: IYVLVMLVL

T2: WT1 (modified form of the WT1 peptide) peptide on HLA-A*24:02 (human)
T2 peptide: CYTWNQMNL

B1: TCR of clone LMP2#1 (TCR)
alpha TRAV26-1*01 TRAJ34*01 CDR3: CIVTRFYTDKLIF
beta TRBV14*02 TRBJ2-1*01 CDR3: CASSSPGSRPYNEQFF
B2: TCR of clone WT1#3-3 (TCR)
alpha TRAV12-1*01 TRAJ9*01 CDR3: CVVRGGGFKTIF
beta TRBV20-1*01 TRBJ2-6*01 CDR3: CSARAGTGGANVLTF

Assays:
[1] = biological target: T1, LMP2 (Epstein-Barr virus latent …); assay: multimer staining
[2] = biological target: T2, WT1 (modified form of the WT1 peptide) …; assay: killing

Row | Binder | binding result [1] | binding result [2]
1 | B1 | recognises | –
2 | B2 | – | recognises
